Columns and labels:
[1] = biological target: T1, sclerostin loop 3-6 (sites 127-128 mutated) (UniProt Q9BQB4 135-169, G151A;E152A); experiment: BLI
T1 chain: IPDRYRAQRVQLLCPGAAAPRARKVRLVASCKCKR

[2] = biological target: sclerostin (UniProt Q9BQB4 24-213); experiment: BLI
Sequence of sclerostin (Q9BQB4 24-213): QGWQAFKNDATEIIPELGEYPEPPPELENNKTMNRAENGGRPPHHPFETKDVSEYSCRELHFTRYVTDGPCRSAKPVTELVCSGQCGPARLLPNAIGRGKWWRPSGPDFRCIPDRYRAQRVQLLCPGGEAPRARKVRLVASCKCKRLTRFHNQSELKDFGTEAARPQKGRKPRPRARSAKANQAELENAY

CGGGGTGTGGGTTCGTCGTTAGCTTGATTTGGCAGCTGCC (ssDNA) [Aptscl56]
binding result [1]: no binding | Kd [2]: 68.6 nM

— paper PMC10914587
